# Where two headings read alike, the source gives them in different places.
# Assays:
# [1] = biological target: SARS-CoV-2 Spike protein (SARS-CoV-2 Wuhan-Hu-1) (UniProt P0DTC2); assay: cell-based or functional assay
# [2] = biological target: BGR2008 spike protein RBD (BGR2008); assay: BLI
# [3] = biological target: WIV1 spike protein RBD (WIV1); assay: BLI
# [4] = biological target: PANG/GD spike protein (PANG/GD); assay: cell-based or functional assay
# [5] = biological target: PANG/GX spike protein (PANG/GX); assay: cell-based or functional assay
# [6] = biological target: BGR2008 spike protein RBD (BGR2008); assay: BLI; remark: listed apart in the source
# [7] = biological target: WIV1 spike protein RBD (WIV1); assay: BLI; remark: listed apart in the source
# [8] = biological target: PANG/GX spike protein RBD (PANG/GX); assay: ELISA
# [9] = biological target: SC2018 spike RBD (SC2018); assay: ELISA
# [10] = biological target: BtKY72 spike protein RBD (BtKY72); assay: ELISA
# [11] = biological target: BGR2008 spike protein RBD (BGR2008); assay: ELISA
# [12] = biological target: PANG/GD spike protein RBD (PANG/GD); assay: ELISA
# [13] = biological target: SX2011 spike RBD (SX2011); assay: ELISA
# [14] = biological target: RaTG13 spike protein RBD (RaTG13); assay: ELISA
# [15] = biological target: Anlong112 spike RBD (Anlong112); assay: ELISA
# [16] = biological target: YN2013 spike RBD (YN2013); assay: ELISA
# [17] = biological target: SC2018 spike RBD (SC2018); assay: BLI; *no optimal fitting
# [18] = biological target: BtKY72 spike protein RBD (BtKY72)
# [19] = biological target: ZC45 spike protein RBD (ZC45)
# [20] = biological target: BGR2008 spike protein RBD (BGR2008)
# [21] = biological target: SC2018 spike RBD (SC2018)
# [22] = biological target: PANG/GD spike protein RBD (PANG/GD)
# [23] = biological target: RaTG13 spike protein RBD (RaTG13)
# [24] = biological target: WIV1 spike protein RBD (WIV1)
# [25] = biological target: PANG/GX spike protein RBD (PANG/GX)
# S2X259 Fab, sequence (VH): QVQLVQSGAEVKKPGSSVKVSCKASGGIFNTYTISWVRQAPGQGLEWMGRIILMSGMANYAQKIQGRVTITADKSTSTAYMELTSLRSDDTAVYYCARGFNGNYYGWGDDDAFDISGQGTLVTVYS
# S2X259 Fab, sequence (VL): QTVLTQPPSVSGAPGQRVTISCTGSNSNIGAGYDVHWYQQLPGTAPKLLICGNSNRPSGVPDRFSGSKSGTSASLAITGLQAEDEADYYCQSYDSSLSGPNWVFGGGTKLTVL
# S2X259 (antibody), sequence (VH): as the sequence (VH) above
# S2X259 (antibody), sequence (VL): as the sequence (VL) above
substance,measurement,setting,value
S2E12-LS (antibody),neutralization EC50 (interpolated),[1],0.0014 µg/mL
same,neutralization EC90 (interpolated),[1],0.0119 µg/mL
same,neutralization IC50,[1],0.0014 µg/mL
S2M11-LS (antibody),neutralization EC50 (interpolated),[1],0.0011 µg/mL
same,neutralization EC90 (interpolated),[1],0.0144 µg/mL
same,neutralization IC50,[1],0.000914 µg/mL
S2X259 (antibody),Kd,[2],1.24 nM
same,Kd,[3],0.61 nM
same,neutralization IC50,[4],0.179 µg/mL
same,neutralization IC50,[5],1.32 µg/mL
same,Kd,[6],1.04 nM
same,Kd,[7],0.57 nM
same,EC50,[8],0.0281 µg/mL
same,EC50,[9],0.001 to 0.05 µg/mL
same,EC50,[10],0.0376 µg/mL
same,EC50,[11],0.0308 µg/mL
same,EC50,[12],0.0362 µg/mL
same,EC50,[13],0.001 to 0.05 µg/mL
same,EC50,[14],0.0401 µg/mL
same,EC50,[15],0.1 to 1 µg/mL
same,EC50,[16],0.001 to 0.05 µg/mL
same,Kd,[17],6.93 nM
S2X259 Fab,Kd,[18],0.4 nM
same,Kd,[19],4000 nM
same,Kd,[20],3.6 nM
same,Kd,[21],64 nM
same,Kd,[22],0.2 nM
same,Kd,[23],1.1 nM
same,Kd,[24],1.4 nM
same,Kd,[25],10 nM
